Measured values reported in PMC13500710.
Changes are numbered by the printed parent chain. Read-outs that look alike come from different tables or passages of the source.

T1: ORC1 full length (Homo sapiens, UniProt Q13415 1-861)
T1 sequence: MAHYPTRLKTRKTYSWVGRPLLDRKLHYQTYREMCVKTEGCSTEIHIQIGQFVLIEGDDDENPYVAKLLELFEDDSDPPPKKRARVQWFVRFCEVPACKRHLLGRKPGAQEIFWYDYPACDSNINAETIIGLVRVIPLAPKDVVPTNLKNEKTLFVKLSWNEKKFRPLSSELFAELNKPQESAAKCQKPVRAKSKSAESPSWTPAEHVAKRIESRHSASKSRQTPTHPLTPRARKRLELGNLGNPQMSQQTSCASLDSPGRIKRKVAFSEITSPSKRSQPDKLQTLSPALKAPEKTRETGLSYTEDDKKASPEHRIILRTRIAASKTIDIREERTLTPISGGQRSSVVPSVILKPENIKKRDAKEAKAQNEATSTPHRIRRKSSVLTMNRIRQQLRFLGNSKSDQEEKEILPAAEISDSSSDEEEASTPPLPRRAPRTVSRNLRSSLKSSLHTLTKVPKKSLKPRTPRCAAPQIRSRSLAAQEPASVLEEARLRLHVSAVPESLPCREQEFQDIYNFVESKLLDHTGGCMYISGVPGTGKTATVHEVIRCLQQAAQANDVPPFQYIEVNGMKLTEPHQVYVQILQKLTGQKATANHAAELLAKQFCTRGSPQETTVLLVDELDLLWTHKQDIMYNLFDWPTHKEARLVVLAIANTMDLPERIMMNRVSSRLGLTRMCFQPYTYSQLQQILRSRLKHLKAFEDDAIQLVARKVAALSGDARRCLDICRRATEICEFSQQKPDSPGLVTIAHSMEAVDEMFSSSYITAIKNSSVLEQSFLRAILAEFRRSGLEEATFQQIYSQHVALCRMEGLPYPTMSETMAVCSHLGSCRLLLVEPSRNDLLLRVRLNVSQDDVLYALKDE

T2: ORC1 WHD (Homo sapiens, UniProt Q13415 783-861)
T2 sequence: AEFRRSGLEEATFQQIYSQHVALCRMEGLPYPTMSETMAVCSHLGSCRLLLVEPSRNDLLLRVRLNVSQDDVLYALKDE

T3: ORC1 BAH domain (Homo sapiens, UniProt Q13415 1-200)
T3 sequence: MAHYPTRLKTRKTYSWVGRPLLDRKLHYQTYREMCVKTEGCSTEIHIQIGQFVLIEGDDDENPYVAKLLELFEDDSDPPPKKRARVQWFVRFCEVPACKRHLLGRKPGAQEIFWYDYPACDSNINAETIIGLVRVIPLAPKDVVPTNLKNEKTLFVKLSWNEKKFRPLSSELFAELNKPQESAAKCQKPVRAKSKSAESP

T4: ORC1 mutant (EYYE) (Homo sapiens, UniProt Q13415 1-861, R297E;S450Y;T593Y;R846E)
T4 sequence: T1 sequence with R297E, S450Y, T593Y, R846E


Columns and labels:
Test in all cases: EMSA
ORC1 full length [1] = target: T1, ORC1 full length
ORC1 full length [2] = target: T1, ORC1 full length; remark: listed apart in the source
ORC1 full length [3] = target: T1, ORC1 full length; remark: listed apart in the source
ORC1 WHD = target: T2, ORC1 WHD
ORC1 BAH domain = target: T3, ORC1 BAH domain
ORC1 mutant (EYYE) = target: T4, ORC1 mutant (EYYE)

Binder | binding result (ORC1 full length [1]) | binding result (ORC1 full length [2]) | further results
GAUGGGAGGAAACGCUAAAGCCCAAGGUUUCAGAGGUGAU (ssRNA) [MYC3] | no binding | – | –
CAGCCGCCCACUUUUGACAGGCCUGGGCGGGCUUCGCUUA (ssRNA) [MYC1, 32P] | – | no binding | –
CAGCCGCCCACUUUUGACAGGCCUGGGCGGGCUUCGCUUA (ssRNA) [MYC1, biotinylated] | – | – | binding result (ORC1 full length [3]): no binding
GAGCUCCCAAAUCUCUCCAGAUCUGCUAUCUCUCCUUCCU (ssRNA) [MYC2] | no binding | – | –
GTACGCGCGTGGCGTGGCGGTGGGCGCGCAGTGCGTTCTC (ssDNA) [dRM9] | – | no binding | –
GAGAACGCACUGCGCGCCCACCGCCACGCCACGCGCGUAC (ssRNA) [RM9, biotinylated] | – | – | binding result (ORC1 WHD): no binding; binding result (ORC1 BAH domain): no binding; binding result (ORC1 mutant (EYYE)): no binding
